Measured values from publication PMC10448276, “Mechanisms controlling membrane recruitment and activation of the autoinhibited SHIP1 inositol 5-phosphatase” (The Journal of Biological Chemistry, 2023).
Non-standard residues stand in square brackets, D forms with d. No end group written: not given here. pY = N[C@@H](Cc1ccc(OP(=O)(O)O)cc1)C(=O)O

B1: mNG-SHIP1 (FL, 1–1188 aa), full-length human Src homology 2 domain–containing inositol 5-phosphatase 1 (enzyme, UniProt Q92835-2 1-1188, looked up)
chain: MVPCWNHGNITRSKAEELLSRTGKDGSFLVRASESISRAYALCVLYRNCVYTYRILPNEDDKFTVQASEGVSMRFFTKLDQLIEFYKKENMGLVTHLQYPVPLEEEDTGDDPEEDTESVVSPPELPPRNIPLTASSCEAKEVPFSNENPRATETSRPSLSETLFQRLQSMDTSGLPEEHLKAIQDYLSTQLAQDSEFVKTGSSSLPHLKKLTTLLCKELYGEVIRTLPSLESLQRLFDQQLSPGLRPRPQVPGEANPINMVSKLSQLTSLLSSIEDKVKALLHEGPESPHRPSLIPPVTFEVKAESLGIPQKMQLKVDVESGKLIIKKSKDGSEDKFYSHKKILQLIKSQKFLNKLVILVETEKEKILRKEYVFADSKKREGFCQLLQQMKNKHSEQPEPDMITIFIGTWNMGNAPPPKKITSWFLSKGQGKTRDDSADYIPHDIYVIGTQEDPLSEKEWLEILKHSLQEITSVTFKTVAIHTLWNIRIVVLAKPEHENRISHICTDNVKTGIANTLGNKGAVGVSFMFNGTSLGFVNSHLTSGSEKKLRRNQNYMNILRFLALGDKKLSPFNITHRFTHLFWFGDLNYRVDLPTWEAETIIQKIKQQQYADLLSHDQLLTERREQKVFLHFEEEEITFAPTYRFERLTRDKYAYTKQKATGMKYNLPSWCDRVLWKSYPLVHVVCQSYGSTSDIMTSDHSPVFATFEAGVTSQFVSKNGPGTVDSQGQIEFLRCYATLKTKSQTKFYLEFHSSCLESFVKSQEGENEEGSEGELVVKFGETLPKLKPIISDPEYLLDQHILISIKSSDSDESYGEGCIALRLEATETQLPIYTPLTHHGELTGHFQGEIKLQTSQGKTREKLYDFVKTERDESSGPKTLKSLTSHDPMKQWEVTSRAPPCSGSSITEIINPNYMGVGPFGPPMPLHVKQTLSPDQQPTAWSYDQPPKDSPLGPCRGESPPTPPGQPPISPKKFLPSTANRGLPPRTQESRPSDLGKNAGDTLPQEDLPLTKPEMFENPLYGSLSSFPKPAPRKDQESPKMPRKEPPPCPEPGILSPSIVLTKAQEADRGEGPGKQVPAPRLRSFTCSSSAEGRAAGGDKSQGKPKTPVSSQAPVPAKRPIKPSRSEINQQTPPTPTPRPPLPVKSPAVLHLQHSKGRDYRDNTELPHHGKHRPEEGPPGPLGRTAMQ
B2: pY-ITIM, phosphotyrosine peptide from the immunoreceptor tyrosine inhibitory motif (ITIM) of the FcγRIIB receptor (peptide)
peptide: CKTEAENTIT[pY]SLIK
modifications: also: N-terminal Cys coupled to maleimide headgroup of MCC-PE lipid in membrane-conjugated experiments
notes: cysteine added to the N terminus for coupling to the maleimide lipid; the tyrosine is phosphorylated; Used in solution (100 μM) or conjugated to supported lipid bilayers with 2% MCC-PE; also called pY peptide; ITIM peptide; source: synthetic peptide (Elim Biopharmaceuticals)

How the values were obtained:
[1] = molecular target: B2; experiment: cell-based or functional assay
[2] = molecular target: B1; experiment: TIRF microscopy on supported lipid bilayers (bulk membrane recruitment); 5 nM mNG-SHIP1 construct in solution; pY-ITIM peptide covalently conjugated to maleimide lipid in the SLB (96% DOPC, 2% PI(3,4,5)P3, 2% MCC-PE); 23 °C; settings: both partners purified

Row | lipid phosphatase activity of 20 nM FL SHIP1 on SLB (PI(3,4,5)P3 dephosphorylation, Grp1-AF647 sensor, reaction half time) with 100 μM pY-ITIM in solution [1] [fold] | binding result [2] | Binder
1 | ~5 | – | B1
2 | – | binds | B2
